T1: APBA1_2, Q02410
T1 sequence (Q02410 742-832, limits assumed, looked up): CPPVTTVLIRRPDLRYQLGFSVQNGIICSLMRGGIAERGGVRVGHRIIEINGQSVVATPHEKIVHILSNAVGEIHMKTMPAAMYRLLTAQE

T2: APBA2_1, Q99767
T2 sequence (Q99767 563-664, limits assumed, looked up): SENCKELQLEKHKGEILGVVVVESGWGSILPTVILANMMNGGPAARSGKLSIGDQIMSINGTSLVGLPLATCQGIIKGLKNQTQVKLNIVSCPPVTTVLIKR

T3: APBA3_1, O96018
T3 sequence (O96018 389-490, limits assumed, looked up): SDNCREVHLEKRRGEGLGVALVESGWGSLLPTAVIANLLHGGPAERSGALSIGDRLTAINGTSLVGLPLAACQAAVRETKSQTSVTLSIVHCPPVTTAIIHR

T4: DFNB31_3, Q9P202
T4 sequence (Q9P202 811-907, limits assumed, looked up): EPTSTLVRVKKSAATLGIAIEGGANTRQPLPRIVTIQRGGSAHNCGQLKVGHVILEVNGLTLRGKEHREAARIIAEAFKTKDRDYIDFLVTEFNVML

T5: DVL3, Q92997
T5 sequence (Q92997 244-331, limits assumed, looked up): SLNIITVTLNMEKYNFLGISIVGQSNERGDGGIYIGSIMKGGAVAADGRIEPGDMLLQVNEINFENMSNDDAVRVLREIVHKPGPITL

T6: GRIP1_3, Q9Y3R0
T6 sequence (Q9Y3R0 247-346, limits assumed, looked up): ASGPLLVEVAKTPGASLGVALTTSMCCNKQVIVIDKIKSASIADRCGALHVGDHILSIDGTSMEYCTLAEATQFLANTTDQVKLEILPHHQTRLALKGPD

T7: HTRA3, P83110
T7 sequence (P83110 354-453, limits assumed, looked up): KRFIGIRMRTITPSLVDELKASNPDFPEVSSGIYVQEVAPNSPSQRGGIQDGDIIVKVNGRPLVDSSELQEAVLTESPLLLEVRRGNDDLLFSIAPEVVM

T8: LNX2_3, Q8N448
T8 sequence (Q8N448 463-564, limits assumed, looked up): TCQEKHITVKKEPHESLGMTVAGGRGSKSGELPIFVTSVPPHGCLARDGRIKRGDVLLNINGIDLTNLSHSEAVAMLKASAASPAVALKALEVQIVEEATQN

T9: LRRC7, Q96NW7
T9 sequence (Q96NW7 1440-1537, limits assumed, looked up): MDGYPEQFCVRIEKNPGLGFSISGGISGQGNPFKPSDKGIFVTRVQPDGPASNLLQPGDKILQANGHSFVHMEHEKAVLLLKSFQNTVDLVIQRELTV

T10: NHERF3_3, Q5T2W1
T10 sequence (Q5T2W1 238-333, limits assumed, looked up): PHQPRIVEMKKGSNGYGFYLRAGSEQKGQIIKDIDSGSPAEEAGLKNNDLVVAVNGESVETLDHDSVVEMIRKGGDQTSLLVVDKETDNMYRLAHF

T11: NHERF3_4, Q5T2W1
T11 sequence (Q5T2W1 373-468, limits assumed, looked up): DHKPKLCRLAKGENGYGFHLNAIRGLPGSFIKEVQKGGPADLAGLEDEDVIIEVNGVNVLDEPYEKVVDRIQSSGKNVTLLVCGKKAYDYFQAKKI

T12: PDZD2_2, O15018
T12 sequence (O15018 329-429, limits assumed, looked up): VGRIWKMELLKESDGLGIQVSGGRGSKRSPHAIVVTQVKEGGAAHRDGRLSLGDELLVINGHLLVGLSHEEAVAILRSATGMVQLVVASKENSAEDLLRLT

T13: PDZD7_3, Q9H5P4
T13 sequence (Q9H5P4 857-944, limits assumed, looked up): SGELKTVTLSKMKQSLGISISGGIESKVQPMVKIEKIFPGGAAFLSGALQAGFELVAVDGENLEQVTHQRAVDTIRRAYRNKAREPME

T14: TJP3_3, O95049
T14 sequence (O95049 375-456, limits assumed, looked up): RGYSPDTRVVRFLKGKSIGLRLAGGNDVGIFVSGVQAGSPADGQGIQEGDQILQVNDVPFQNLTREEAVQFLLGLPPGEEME


Experiments:
Experiment in all cases: holdup assay
Parameters in all cases: key: below the threshold = too weak to quantify, mostly under pKd 3.1 to 4
Settings in all cases: plain residues with an end cap or a label only (N-terminal biotin on a linker: ado-ado)
APBA1_2, Q02410 = target: T1, APBA1_2, Q02410
APBA2_1, Q99767 = target: T2, APBA2_1, Q99767
APBA3_1, O96018 = target: T3, APBA3_1, O96018
DFNB31_3, Q9P202 = target: T4, DFNB31_3, Q9P202
DLG2_2, Q15700 = target: DLG2_2, Q15700
DLG2_2, Q15700, sequence (Q15700 189-283): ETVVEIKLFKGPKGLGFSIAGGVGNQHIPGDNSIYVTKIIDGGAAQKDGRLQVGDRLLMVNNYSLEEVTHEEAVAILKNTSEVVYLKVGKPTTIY

DVL3, Q92997 = target: T5, DVL3, Q92997
FRMPD2_3, Q68DX3 = target: FRMPD2_3, Q68DX3
FRMPD2_3, Q68DX3, sequence (Q68DX3 1073-1166): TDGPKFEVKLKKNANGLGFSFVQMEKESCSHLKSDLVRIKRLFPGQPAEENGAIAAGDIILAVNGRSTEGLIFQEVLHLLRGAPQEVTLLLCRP

GIPC2, Q8TF65 = target: GIPC2, Q8TF65
GIPC2, Q8TF65, sequence (Q8TF65 112-203): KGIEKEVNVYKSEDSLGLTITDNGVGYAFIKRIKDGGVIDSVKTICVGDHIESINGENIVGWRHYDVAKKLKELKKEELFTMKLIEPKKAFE

GRIP1_3, Q9Y3R0 = target: T6, GRIP1_3, Q9Y3R0
GRIP2_7, Q9C0E4 = target: GRIP2_7, Q9C0E4
GRIP2_7, Q9C0E4, sequence (Q9C0E4 934-1023): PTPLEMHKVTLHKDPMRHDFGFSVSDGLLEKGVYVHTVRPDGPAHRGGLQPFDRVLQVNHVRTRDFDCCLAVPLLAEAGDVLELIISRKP

HTRA3, P83110 = target: T7, HTRA3, P83110
IL16_3, Q14005 = target: IL16_3, Q14005
IL16_3, Q14005, sequence (Q14005 1107-1207): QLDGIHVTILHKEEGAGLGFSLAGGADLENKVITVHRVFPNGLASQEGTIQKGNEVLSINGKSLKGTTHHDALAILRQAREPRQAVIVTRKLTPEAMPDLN

Inadl_5, Q8NI35 = target: Inadl_5, Q8NI35
Inadl_5, Q8NI35, sequence (Q8NI35 673-780): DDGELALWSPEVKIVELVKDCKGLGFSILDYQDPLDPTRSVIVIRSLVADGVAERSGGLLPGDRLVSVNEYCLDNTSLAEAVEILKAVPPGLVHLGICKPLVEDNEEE

Inadl_9, Q8NI35 = target: Inadl_9, Q8NI35
Inadl_9, Q8NI35, sequence (Q8NI35 1530-1615): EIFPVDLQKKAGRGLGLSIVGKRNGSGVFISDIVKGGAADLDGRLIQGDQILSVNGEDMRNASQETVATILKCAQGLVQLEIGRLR

LNX1_1, Q8TBB1 = target: LNX1_1, Q8TBB1
LNX1_1, Q8TBB1, sequence (Q8TBB1 261-371): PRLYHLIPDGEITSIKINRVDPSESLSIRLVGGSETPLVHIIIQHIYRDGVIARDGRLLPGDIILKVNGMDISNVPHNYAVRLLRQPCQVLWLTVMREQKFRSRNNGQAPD

LNX2_3, Q8N448 = target: T8, LNX2_3, Q8N448
LRRC7, Q96NW7 = target: T9, LRRC7, Q96NW7
MAST1, Q9Y2H9 = target: MAST1, Q9Y2H9
MAST1, Q9Y2H9, sequence (Q9Y2H9 962-1065): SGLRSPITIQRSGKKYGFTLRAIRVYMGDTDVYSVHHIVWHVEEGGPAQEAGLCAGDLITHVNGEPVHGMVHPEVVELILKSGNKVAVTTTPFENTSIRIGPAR

NHERF3_3, Q5T2W1 = target: T10, NHERF3_3, Q5T2W1
NHERF3_4, Q5T2W1 = target: T11, NHERF3_4, Q5T2W1
PDZD2_2, O15018 = target: T12, PDZD2_2, O15018
PDZD7_3, Q9H5P4 = target: T13, PDZD7_3, Q9H5P4
TJP1_3, Q07157 = target: TJP1_3, Q07157
TJP1_3, Q07157, sequence (Q07157 416-512): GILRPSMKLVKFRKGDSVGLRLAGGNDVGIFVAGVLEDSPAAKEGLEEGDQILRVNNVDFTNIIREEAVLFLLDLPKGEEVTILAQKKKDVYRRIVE

TJP3_3, O95049 = target: T14, TJP3_3, O95049

Binder | pKd (APBA1_2, Q02410) | pKd (APBA2_1, Q99767) | pKd (APBA3_1, O96018) | pKd (DFNB31_3, Q9P202) | pKd (DLG2_2, Q15700) | pKd (DVL3, Q92997) | pKd (FRMPD2_3, Q68DX3) | pKd (GIPC2, Q8TF65) | pKd (GRIP1_3, Q9Y3R0) | pKd (GRIP2_7, Q9C0E4) | pKd (HTRA3, P83110) | pKd (IL16_3, Q14005) | pKd (Inadl_5, Q8NI35) | pKd (Inadl_9, Q8NI35) | pKd (LNX1_1, Q8TBB1) | pKd (LNX2_3, Q8N448) | pKd (LRRC7, Q96NW7) | pKd (MAST1, Q9Y2H9) | pKd (NHERF3_3, Q5T2W1) | pKd (NHERF3_4, Q5T2W1) | also measured
LKVPPEERLI [CRB2, Q5IJ48] | below the threshold | below the threshold | below the threshold | below the threshold | below the threshold | below the threshold | below the threshold | below the threshold | below the threshold | below the threshold | below the threshold | below the threshold | below the threshold | below the threshold | below the threshold | below the threshold | below the threshold | 3.58 | below the threshold | below the threshold | pKd (PDZD2_2, O15018): below the threshold; pKd (PDZD7_3, Q9H5P4): below the threshold; pKd (TJP1_3, Q07157): below the threshold; pKd (TJP3_3, O95049): below the threshold
YRLAQESGLV [ABCC6, O95255] | below the threshold | below the threshold | below the threshold | 3.94 | below the threshold | below the threshold | below the threshold | below the threshold | below the threshold | below the threshold | below the threshold | below the threshold | below the threshold | below the threshold | below the threshold | below the threshold | below the threshold | 3.59 | below the threshold | below the threshold | pKd (PDZD2_2, O15018): 3.51; pKd (PDZD7_3, Q9H5P4): 4.01; pKd (TJP1_3, Q07157): below the threshold; pKd (TJP3_3, O95049): below the threshold

Second part, led by results:

pKd (APBA1_2, Q02410) | pKd (APBA2_1, Q99767) | pKd (APBA3_1, O96018) | pKd (DFNB31_3, Q9P202) | pKd (DLG2_2, Q15700) | pKd (DVL3, Q92997) | pKd (FRMPD2_3, Q68DX3) | pKd (GIPC2, Q8TF65) | pKd (GRIP1_3, Q9Y3R0) | pKd (GRIP2_7, Q9C0E4) | pKd (HTRA3, P83110) | pKd (IL16_3, Q14005) | pKd (Inadl_5, Q8NI35) | pKd (Inadl_9, Q8NI35) | pKd (LNX1_1, Q8TBB1) | pKd (LNX2_3, Q8N448) | pKd (LRRC7, Q96NW7) | pKd (MAST1, Q9Y2H9) | pKd (NHERF3_3, Q5T2W1) | pKd (NHERF3_4, Q5T2W1) | Binder | also measured
below the threshold | below the threshold | below the threshold | 3.88 | 4.06 | below the threshold | below the threshold | below the threshold | below the threshold | below the threshold | below the threshold | below the threshold | below the threshold | below the threshold | below the threshold | below the threshold | below the threshold | 4.55 | below the threshold | below the threshold | TASPAKETSF [SLC2A7, Q6PXP3] | pKd (PDZD2_2, O15018): below the threshold; pKd (PDZD7_3, Q9H5P4): below the threshold; pKd (TJP1_3, Q07157): below the threshold; pKd (TJP3_3, O95049): below the threshold
below the threshold | below the threshold | below the threshold | below the threshold | below the threshold | below the threshold | below the threshold | 3.74 | below the threshold | below the threshold | below the threshold | below the threshold | below the threshold | below the threshold | 3.52 | below the threshold | below the threshold | 4.18 | below the threshold | below the threshold | MLSKQSESAI [FLVCR1, Q9Y5Y0] | pKd (PDZD2_2, O15018): 4.46; pKd (PDZD7_3, Q9H5P4): 3.78; pKd (TJP1_3, Q07157): below the threshold; pKd (TJP3_3, O95049): below the threshold
below the threshold | below the threshold | below the threshold | 3.9 | below the threshold | below the threshold | below the threshold | 3.73 | below the threshold | below the threshold | 4.6 | below the threshold | below the threshold | below the threshold | below the threshold | below the threshold | below the threshold | below the threshold | below the threshold | below the threshold | RKPKPSSSCC [RAB9A, P51151] | pKd (PDZD2_2, O15018): 4.35; pKd (PDZD7_3, Q9H5P4): 3.76; pKd (TJP1_3, Q07157): below the threshold; pKd (TJP3_3, O95049): below the threshold

Source: article PMC9482650, “Quantitative fragmentomics allow affinity mapping of interactomes” (Nature Communications, 2022)
